T1: CD154 expressed on D1.1 Jurkat cells (UniProt P29965 1-261, limits assumed)
T1 sequence (looked up): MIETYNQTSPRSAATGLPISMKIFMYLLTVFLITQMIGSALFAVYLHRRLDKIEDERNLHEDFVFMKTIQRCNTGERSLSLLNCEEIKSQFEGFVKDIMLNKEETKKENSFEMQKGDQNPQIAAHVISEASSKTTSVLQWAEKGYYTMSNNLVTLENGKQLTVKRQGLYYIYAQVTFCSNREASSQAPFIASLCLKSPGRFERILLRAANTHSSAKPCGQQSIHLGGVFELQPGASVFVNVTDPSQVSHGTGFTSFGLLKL

T2: soluble human CD154 protein (extracellular domain) (human, UniProt P29965 116-261)
T2 construct: also called sCD154; recombinant extracellular domain of human CD154
T2 sequence: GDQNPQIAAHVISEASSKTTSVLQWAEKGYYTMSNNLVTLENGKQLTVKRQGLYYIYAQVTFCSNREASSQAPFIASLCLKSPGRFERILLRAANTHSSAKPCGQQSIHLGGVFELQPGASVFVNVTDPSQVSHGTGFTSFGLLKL


Key:
[1] = target: T1, CD154 expressed on D1.1 Jurkat cells; assay: cell-based or functional assay
[2] = target: T1, CD154 expressed on D1.1 Jurkat cells; assay: flow cytometry: inhibition of the binding of hCD40-mFc-PE to CD154-expressing D1.1 Jurkat cells by serially diluted antibody (Example 5)
Description: A flow cytometry-based assay was used to assess the binding of labeled CD40 to CD154-expressing D1.1 cells. D1.1 Jurkat cells (American Type Culture Collection) were maintained in RPMI 1640 medium (Gibco, 31870-025)) containing 10% (v/v) fetal calf serum (FCS), 2 mM glutamine (Invitrogen, 23030024), 1 mM sodium pyruvate (Invitrogen, 11360-039), 1% (v/v) D-(+)-glucose (Sigma, G8769) & 10 mM HEPES (Sigma, H0887). At time of assay, 100,000 D1.1 cells were incubated in 100 μL RPMI 1640 medium+10% FCS, in the presence or absence of serially diluted anti-CD154 antibody for 15 minutes at room temperature. 5 μL of a 1:75 dilution of hCD40-mFc-PE (Alexis Corp, ANC-504-050) was then added and incubated for a further 30 minutes at room temperature. After washing twice in phosphate-buffered saline (PBS) containing 1% (w/v) bovine serum albumin (BSA fraction V, Serologicals Proteins Inc, 81-068-5) and 0.02% (w/v) sodium azide (BDH, 103692K), cells were resuspended in 200 μL PBS/1% BSA/0.02% sodium azide and flow cytometry performed on a Becton Dickinson FACScan. The values for geometric mean fluorescence (FL2) were assessed in all cases.

[3] = target: T2, soluble human CD154 protein …; assay: Biacore (SPR): antibody or fragment captured on immobilized anti-human IgG (Fc- or Fab'-specific) F(ab')2, recombinant extracellular domain of human CD154 titrated over it (Example 4)
Description: Catalogue Number: BR-1001-88, Biacore AB, Uppsala, Sweden. Buffer stored at 4° C. Immobilization buffer is Acetate 5.0 (being 10 mM sodium acetate pH 5.0). Catalogue number: BR-1003-51, Biacore AB, Uppsala, Sweden. Buffer stored at 4° C. Ligand capture: Affinipure F(ab′)₂ fragment goat anti-human IgG, Fab′ fragment specific (Catalogue number: 109-006-097) or Fc fragment specific (Catalogue number: 109-006-098), Jackson ImmunoResearch Inc (Pennsylvania, USA). Reagents stored at 4° C. […] Analyte: Recombinant extracellular domain of human CD154. Material was prepared at 2 mg/mL (40 μM) in phosphate-buffered saline, stored at 4° C., and diluted in HBE-EP running buffer for the assays. […] Regeneration Solution: 40 mM HCl prepared by dilution with distilled water from an 11.6 M stock solution (BDH, Poole, England. Catalogue number: 101254H). 5 mM NaOH prepared by dilution with distilled water from a 50 mM stock solution. Catalogue number: BR-1003-58, Biacore AB, Uppsala, Sweden. Assay Method: BIA (Biamolecular Interaction Analysis) was performed using a Biacore® 3000 (Biacore AB). Affinipure F(ab′)₂ fragment goat anti-human IgG, Fc- or Fab′-fragment specific (Jackson ImmunoResearch) were immobilized on a CM5 Sensor Chip via amine coupling chemistry to a capture level of ≈6000 response units (RUs). HBS-EP buffer (10 mM HEPES pH 7.4, 0.15 M NaCl, 3 mM EDTA, 0.005% Surfactant P20, Biacore AB) was used as the running buffer with a flow rate of 10 μl/min. Anti-CD154 antibodies or Fab fragments were used at concentrations such that, once captured by the immobilized anti-human IgG-Fc (or anti-human IgG Fab′) surface, gave a signal of ≈200 RUs. Human CD154 was titrated over the captured antibody, at various concentrations. 90 μL of CD154 was injected over the surface (association phase), followed by a 240 second dissociation phase, all at a flow rate of 30 μl/min. […] Background subtraction binding curves were analyzed using the BIAevaluation software (version 3.2) following standard procedures. Kinetic parameters were determined from the fitting algorithm.

[4] = target: T1, CD154 expressed on D1.1 Jurkat cells; assay: flow cytometry competition binding assay: serially diluted antibody against biotinylated 342 Fab on CD154-expressing D1.1 Jurkat cells, streptavidin-R-phycoerythrin detection (Example 6)
Description: A flow cytometry-based assay was used to assess the binding of anti-CD154 antibody to CD154-expressing D1.1 cells. D1.1 Jurkat cells (American Type Culture Collection) were maintained in RPMI 1640 medium (Gibco, 31870-025) containing 10% (v/v) fetal calf serum (FCS), 2 mM glutamine (BioWhittaker, 17-605E) and […] (Mediatech, 30002107). […] The cells were washed three times in FACS buffer with centrifugation at 290×g for 3 minutes in between washes. A 1:500 dilution of streptavadin-R-phycoerythrin conjugate (Jackson Immunoresearch, 016-110-084) in […] FACS buffer was added and the cells were incubated for one hour at 4° C. The cells were washed once and fixed in PBS with 3% formaldehyde at room temperature for 10 minutes. The cells were resuspended in FACS buffer and run on a FacsCalibur (BD). The values for geometric mean fluorescence (FL2) were assessed in all cases.

Binder	IC50 of inhibition of ICAM-1 (CD54) upregulation on CD40-expressing Ramos B cells co-cultured with CD154-expressing D1.1 Jurkat cells [1] [µg/mL]	IC50 [2] [µg/mL]	Kd [3] [nM]	IC50 [4] [nM]
342 Fab'-PEG (Fab, V domains shown, PEG-maleimide on the single cysteine at the hinge) VH: EVQLVESGGGLVQPGGSLRLSCAVSGFSSTNYHVHWVRQAPGKGLEWMGVIWGDGDTSYNSVLKSRFTISRDTSKNTVYLQMNSLRAEDTAVYYCARQLTHYYVLAAWGQGTLVTVSS VL: DIQMTQSPSSLSASVGDRVTITCRASEDLYYNLAWYQRKPGKAPKLLIYDTYRLADGVPSRFSGSGSGTDYTLTISSLQPEDFASYYCQQYYKFPFTFGQGTKVEIKR	0.127	0.035	0.05	0.113
342 Di-Fab' (other, the two Fab' are cross-linked at the hinge; the linker is not described for this molecule) heavy chain (Fab'): EVQLVESGGGLVQPGGSLRLSCAVSGFSSTNYHVHWVRQAPGKGLEWMGVIWGDGDTSYNSVLKSRFTISRDTSKNTVYLQMNSLRAEDTAVYYCARQLTHYYVLAAWGQGTLVTVSSASTKGPSVFPLAPSSKSTSGGTAALGCLVKDYFPEPVTVSWNSGALTSGVHTFPAVLQSSGLYSLSSVVTVPSSSLGTQTYICNVNHKPSNTKVDKKVEPKSCDKTHTCAA light chain: DIQMTQSPSSLSASVGDRVTITCRASEDLYYNLAWYQRKPGKAPKLLIYDTYRLADGVPSRFSGSGSGTDYTLTISSLQPEDFASYYCQQYYKFPFTFGQGTKVEIKRTVAAPSVFIFPPSDEQLKSGTASVVCLLNNFYPREAKVQWKVDNALQSGNSQESVTEQDSKDSTYSLSSTLTLSKADYEKHKVYACEVTHQGLSSPVTKSFNRGEC	0.022	0.009	–	–
342 Di-Fab'-PEG (other, the two Fab' are cross-linked and PEGylated; paragraph 96 describes DFM-PEG as two Fab' cross-linked with a PEGylated dimaleimide bridge) heavy chain (Fab'): EVQLVESGGGLVQPGGSLRLSCAVSGFSSTNYHVHWVRQAPGKGLEWMGVIWGDGDTSYNSVLKSRFTISRDTSKNTVYLQMNSLRAEDTAVYYCARQLTHYYVLAAWGQGTLVTVSSASTKGPSVFPLAPSSKSTSGGTAALGCLVKDYFPEPVTVSWNSGALTSGVHTFPAVLQSSGLYSLSSVVTVPSSSLGTQTYICNVNHKPSNTKVDKKVEPKSCDKTHTCAA light chain: DIQMTQSPSSLSASVGDRVTITCRASEDLYYNLAWYQRKPGKAPKLLIYDTYRLADGVPSRFSGSGSGTDYTLTISSLQPEDFASYYCQQYYKFPFTFGQGTKVEIKRTVAAPSVFIFPPSDEQLKSGTASVVCLLNNFYPREAKVQWKVDNALQSGNSQESVTEQDSKDSTYSLSSTLTLSKADYEKHKVYACEVTHQGLSSPVTKSFNRGEC	0.058	0.032	0.045	0.026

The remaining lines, values ahead:

IC50 of inhibition of ICAM-1 (CD54) upregulation on CD40-expressing Ramos B cells co-cultured with CD154-expressing D1.1 Jurkat cells [1] [µg/mL]	IC50 [2] [µg/mL]	Kd [3] [nM]	IC50 [4] [nM]	Binder
0.048	0.025	–	0.035	342 aglycosyl IgG4 (antibody, V domains shown, S228P and T299A (Kabat EU) are contained in SEQ ID NO: 72; not N-glycosylated, also called aglycosylated hu342; hu342 aglyP-huIgG4) VH: EVQLVESGGGLVQPGGSLRLSCAVSGFSSTNYHVHWVRQAPGKGLEWMGVIWGDGDTSYNSVLKSRFTISRDTSKNTVYLQMNSLRAEDTAVYYCARQLTHYYVLAAWGQGTLVTVSS VL: DIQMTQSPSSLSASVGDRVTITCRASEDLYYNLAWYQRKPGKAPKLLIYDTYRLADGVPSRFSGSGSGTDYTLTISSLQPEDFASYYCQQYYKFPFTFGQGTKVEIKR
0.031	0.009	–	–	342 Tri-Fab' (other, the three Fab' are cross-linked at the hinge; the linker is not described) heavy chain (Fab'): EVQLVESGGGLVQPGGSLRLSCAVSGFSSTNYHVHWVRQAPGKGLEWMGVIWGDGDTSYNSVLKSRFTISRDTSKNTVYLQMNSLRAEDTAVYYCARQLTHYYVLAAWGQGTLVTVSSASTKGPSVFPLAPSSKSTSGGTAALGCLVKDYFPEPVTVSWNSGALTSGVHTFPAVLQSSGLYSLSSVVTVPSSSLGTQTYICNVNHKPSNTKVDKKVEPKSCDKTHTCAA light chain: DIQMTQSPSSLSASVGDRVTITCRASEDLYYNLAWYQRKPGKAPKLLIYDTYRLADGVPSRFSGSGSGTDYTLTISSLQPEDFASYYCQQYYKFPFTFGQGTKVEIKRTVAAPSVFIFPPSDEQLKSGTASVVCLLNNFYPREAKVQWKVDNALQSGNSQESVTEQDSKDSTYSLSSTLTLSKADYEKHKVYACEVTHQGLSSPVTKSFNRGEC
0.036	0.008	–	–	342 Tri-Fab'-PEG (other, the three Fab' are cross-linked and PEGylated; the chemistry is not described) heavy chain (Fab'): EVQLVESGGGLVQPGGSLRLSCAVSGFSSTNYHVHWVRQAPGKGLEWMGVIWGDGDTSYNSVLKSRFTISRDTSKNTVYLQMNSLRAEDTAVYYCARQLTHYYVLAAWGQGTLVTVSSASTKGPSVFPLAPSSKSTSGGTAALGCLVKDYFPEPVTVSWNSGALTSGVHTFPAVLQSSGLYSLSSVVTVPSSSLGTQTYICNVNHKPSNTKVDKKVEPKSCDKTHTCAA light chain: DIQMTQSPSSLSASVGDRVTITCRASEDLYYNLAWYQRKPGKAPKLLIYDTYRLADGVPSRFSGSGSGTDYTLTISSLQPEDFASYYCQQYYKFPFTFGQGTKVEIKRTVAAPSVFIFPPSDEQLKSGTASVVCLLNNFYPREAKVQWKVDNALQSGNSQESVTEQDSKDSTYSLSSTLTLSKADYEKHKVYACEVTHQGLSSPVTKSFNRGEC

From patent publication US20130045219A1 (UCB, published 2013)
